Laboratory results as given in article PMC11220700, “Activation and Purification of ß‐Glucocerebrosidase by Exploiting its Transporter LIMP‐2 – Implications for Novel Treatment Strategies in Gaucher's and Parkinson's Disease” (Advanced Science, 2024).
Residue numbers refer to the chain shown, from its start. *: point of attachment. Biotin = O=C1N[C@H]2[C@H](CS[C@H]2CCCCC(=O)*)N1

B1: L2H5‐wt peptide (LIMP‐2‐derived helix 5 peptide) (peptide)
peptide: Biotin-KFERQGSGSQVHFLREIIEAMLKAYQSGSGYGRKKRRQRRR-NH2
notes: also called LIMP-2-derived peptide; LIMP-2-mimicking peptide; source: synthetic peptide (BioCat, >95% purity)
B2: soluble LIMP‐2 (sLIMP‐2), secreted LIMP‐2 ectodomain (domain or fragment, human, UniProt Q14108 36-431, looked up)
chain: SIEKKIVLRNGTEAFDSWEKPPLPVYTQFYFFNVTNPEEILRGETPRVEEVGPYTYRELRNKANIQFGDNGTTISAVSNKAYVFERDQSVGDPKIDLIRTLNIPVLTVIEWSQVHFLREIIEAMLKAYQQKLFVTHTVDELLWGYKDEILSLIHVFRPDISPYFGLFYEKNGTNDGDYVFLTGEDSYLNFTKIVEWNGKTSLDWWITDKCNMINGTDGDSFHPLITKDEVLYVFPSDFCRSVYITFSDYESVQGLPAFRYKVPAEILANTSDNAGFCIPEGNCLGSGVLNVSICKNGAPIIMSFPHFYQADERFVSAIEGMHPNQEDHETFVDINPLTGIILKAAKRFQINIYVKKLDDFVETGDIRTMVFPVMYLNESVHIDKETASRLKSMINT
notes: lysosomal integral membrane protein 2 (LIMP-2), human, luminal domain, amino acids 36-431; also called LIMP-2 shuttle; sLIMP-2-shuttle; source: HEK 293F, transfected, secreted into conditioned medium; purified (Ni-NTA, SEC); not shown: 10xHis (TEV-cleavable), C-terminal, kept

Legend:
[1] = molecular target: T1, His‐tagged GCase wt (10xHis, C‐terminal, TEV‐cleavable) (human, UniProt P04062-1 40-536, red fluorescent dye NT-637 on amines (RED-NHS labelling kit), for MST); assay: MST; GCase-His labelled with NT-637, fixed at 25 nM; L2H5-wt titrated in a twofold series of 16 from 125 µM; 50 mM sodium citrate + 0.05% Tween-20, pH 7.4 (cytosolic pH); ambient temperature; the two highest concentrations left out of the Kd fit; conditions: both partners purified
T1 construct: human beta-glucocerebrosidase (GCase) wild type, secreted from cells transfected with pCMV-3-GBA-His; also called GCase-His; source: HEK 293F, transfected, purified from conditioned medium (Ni-NTA); not shown: 10xHis (TEV-cleavable), C-terminal, kept
T1 sequence (looked up): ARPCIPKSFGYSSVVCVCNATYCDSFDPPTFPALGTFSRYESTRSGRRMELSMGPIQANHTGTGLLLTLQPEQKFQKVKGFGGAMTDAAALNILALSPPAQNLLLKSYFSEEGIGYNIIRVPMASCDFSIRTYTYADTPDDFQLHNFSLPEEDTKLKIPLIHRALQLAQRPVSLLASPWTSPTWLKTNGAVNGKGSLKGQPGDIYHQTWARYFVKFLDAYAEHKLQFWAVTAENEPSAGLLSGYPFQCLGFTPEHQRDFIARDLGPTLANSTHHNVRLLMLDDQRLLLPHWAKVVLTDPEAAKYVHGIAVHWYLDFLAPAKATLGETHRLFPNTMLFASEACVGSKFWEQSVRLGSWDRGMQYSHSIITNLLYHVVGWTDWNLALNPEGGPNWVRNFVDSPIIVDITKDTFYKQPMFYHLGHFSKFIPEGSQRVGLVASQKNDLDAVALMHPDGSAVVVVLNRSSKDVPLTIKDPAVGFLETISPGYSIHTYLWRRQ

[2] = molecular target: T1, His‐tagged GCase wt (10xHis, …); assay: MST; GCase-His labelled, L2H5-wt titrated; lysosomal pH (pH 5.0); saturation not reached; conditions: both partners purified
untagged GCase E326K = molecular target: T2, untagged GCase E326K (human, UniProt P04062-1 40-536, E326K); assay: pull-down; Ni-NTA beads in conditioned medium of HEK 293F cells expressing His-tagged sLIMP-2 with untagged GCase (96 h); overnight at 4 °C; wash with 20 mM imidazole, elution with 400 mM imidazole, pH 8.0; western blot; conditions: partners not purified
T2 construct: human beta-glucocerebrosidase (GCase), disease-associated variant E326K, untagged; printed also as p.Glu365Lys (NM_000157.4); numbers count on: the mature protein; also called E326K GCase; p.E326K; source: HEK 293F, transfected (with sLIMP-2 or alone), in conditioned medium; co-purified with sLIMP-2 (Ni-NTA, SEC)
T2 sequence (looked up): T1 sequence (looked up) with E326K

untagged GCase N370S = molecular target: T3, untagged GCase N370S (human, UniProt P04062-1 40-536, N370S); assay: as above; conditions: partners not purified
T3 construct: human beta-glucocerebrosidase (GCase), disease-associated variant N370S, untagged; numbers count on: the mature protein; also called N370S GCase; p.N370S; source: HEK 293F, transfected with sLIMP-2, in conditioned medium; co-purified with sLIMP-2 (Ni-NTA, SEC)
T3 sequence (looked up): T1 sequence (looked up) with N370S

untagged human GCase wt = molecular target: T4, untagged human GCase wt (human, UniProt P04062-1 40-536); assay: as above; conditions: partners not purified
T4 construct: human beta-glucocerebrosidase (GCase) wild type, untagged, secreted into the medium; also called wt GCase; beta-glucocerebrosidase; source: HEK 293F, transfected (with sLIMP-2 or alone), in conditioned medium; co-purified with sLIMP-2 (Ni-NTA, SEC)
T4 sequence (looked up): T1 sequence (looked up)

Binder | Kd [1] [µM] | Kd [2] [µM] | binding result (untagged GCase E326K) | binding result (untagged GCase N370S) | binding result (untagged human GCase wt)
B1 | 0.153 ± 0.037 | ~98 | – | – | –
B2 | – | – | binds | binds | binds
